What was measured:
Assay in all cases: cell-based or functional assay
[1] = target: HIV-1 Env of isolate 92RW009 (clade A pseudovirus) (HIV-1)
[2] = target: HIV-1 Env of isolate 93IN905 (Clade C) (HIV-1)
[3] = target: HIV-1 Env of isolate APV_13, clade B (HIV-1)
[4] = target: HIV-1 Env of isolate MGRM-A-005 (clade A pseudovirus) (HIV-1)
[5] = target: HIV-1 Env of isolate MGRM-A-006 (clade A pseudovirus) (HIV-1)
[6] = target: HIV-1 Env of isolate SC422661.8 (Acute), clade B (HIV-1)
[7] = target: HIV-1 Env of isolate THR0.18 (Acute), clade B (HIV-1)
[8] = target: HIV-1 Env of isolate VLGCB3, clade B (HIV-1)
[9] = target: HIV-1 Env of pseudovirus MGRM-F1-004 (clade F) (HIV-1)
[10] = target: HIV-1 Env of pseudovirus MGRM-G-017 (HIV-1)
[11] = target: HIV-1 Env of pseudovirus MGRM-G-025 (HIV-1)
[12] = target: HIV-1 MGRM-AE-001 Env (pseudovirus) (HIV-1)
[13] = target: HIV-1 MGRM-AE-004 Env (pseudovirus) (HIV-1)
[14] = target: HIV-1 MGRM-AG-013 Env (pseudovirus) (HIV-1)
[15] = target: HIV-1 envelope glycoprotein (Env) of isolate 93IN905 (HIV-1)
[16] = target: HIV-1 envelope glycoprotein (Env) of isolate MGRM-C-023 (HIV-1)
[17] = target: HIV-1 envelope glycoprotein (Env) of isolate MGRM-C-024 (HIV-1)
[18] = target: aMLV envelope on pseudovirus (negative control)
[19] = target: HIV-1 Env of isolate MGRM-F1-018 (pseudovirus) (HIV-1)
[20] = target: HIV-1 envelope glycoprotein (Env) of isolate 92UG037, subtype A (HIV-1)
[21] = target: HIV-1 envelope glycoprotein (Env) of isolate 93WR029, subtype A (HIV-1)
[22] = target: HIV-1 envelope glycoprotein (Env) of isolate MG RM-A-001, subtype A (HIV-1)
[23] = target: HIV-1 envelope glycoprotein (Env) of isolate MG RM-A-012, subtype A (HIV-1)
[24] = target: HIV-1 envelope glycoprotein (Env) of isolate MG RM-A-014, subtype A (HIV-1)
[25] = target: HIV-1 Env of isolate MGRM-AG-011 (pseudovirus) (HIV-1)
[26] = target: HIV-1 JR-CSF Env K421A (HIV-1 (isolate JR-CSF)) (UniProt P20871)
[27] = target: HIV-1 JRCSF Env (HIV-1) (UniProt P20871)
[28] = target: HIV-1 MGRM-C-027 Env (HIV-1)
[29] = target: HIV-1 Env of isolate 98CN009 (HIV-1)
[30] = target: HIV-1 Env of isolate MGRM-C-017 (subtype C), on pseudovirus (HIV-1)
[31] = target: HIV-1 Env of isolate MGRM-C-023 (subtype C), on pseudovirus (HIV-1)
[32] = target: HIV-1 Env of isolate MGRM-D-003 (HIV-1)
[33] = target: HIV-1 Env of isolate MGRM-G-024 (subtype G) (HIV-1)
[34] = target: HIV-1 Env of pseudovirus isolate 93TH305 (clade B) (HIV-1)
[35] = target: HIV-1 Env of pseudovirus MGRM-D-012 (HIV-1)
[36] = target: HIV-1 Env of pseudovirus MGRM-D-014 (HIV-1)
[37] = target: HIV-1 Env of pseudovirus MGRM-F1-008 (HIV-1)
[38] = target: HIV-1 Env of pseudovirus MGRM-F1-016 (HIV-1)

Substance	IC50 (µg/mL), pseudovirus neutralization [19] [µg/mL]	IC50, pseudovirus neutralization [20] [µg/mL]	IC50, pseudovirus neutralization [21] [µg/mL]	IC50, pseudovirus neutralization [22] [µg/mL]	IC50, pseudovirus neutralization [23] [µg/mL]	IC50, pseudovirus neutralization [24] [ng/mL]	IC50 (µg/mL), pseudovirus neutralization [29] [µg/mL]	IC50, single-round pseudovirus neutralization [30] [µg/mL]	IC50, single-round pseudovirus neutralization [31] [µg/mL]	IC50 (µg/mL), pseudovirus neutralization [32] [µg/mL]	IC50 (µg/mL), pseudovirus neutralization [33] [µg/mL]	IC50, pseudovirus neutralization [34] [µg/mL]	IC50, pseudovirus neutralization [35] [µg/mL]	IC50, pseudovirus neutralization [36] [µg/mL]	IC50, pseudovirus neutralization [37] [µg/mL]	IC50, pseudovirus neutralization [38] [µg/mL]	further results
2F5 (antibody)																	IC50 (µg/ml), pseudovirus neutralization [1]: 39.1 µg/mL; IC90 (neutralization of pseudovirus) [2]: > 50 µg/mL; IC50 (µg/ml), pseudovirus neutralization [3]: 3.81 µg/mL; IC50 (µg/ml), pseudovirus neutralization [4]: 5.7 µg/mL; IC50 (µg/ml), pseudovirus neutralization [5]: 15.7 µg/mL; IC50 (µg/ml), pseudovirus neutralization [6]: > 50 µg/mL; IC50 (µg/ml), pseudovirus neutralization [7]: > 50 µg/mL; IC50 (µg/ml), pseudovirus neutralization [8]: > 50 µg/mL; IC50 [9]: 4.31 µg/mL; IC50 (µg/ml), pseudovirus neutralization [10]: 0.6 µg/mL; IC50 (µg/ml), pseudovirus neutralization [11]: > 50 µg/mL; IC50 (µg/ml), pseudovirus neutralization [12]: 0.29 µg/mL; IC50 (µg/ml), pseudovirus neutralization [13]: 0.98 µg/mL; IC50 (µg/ml), pseudovirus neutralization [14]: 1.79 µg/mL; IC50 (µg/ml), pseudovirus neutralization [15]: > 50 µg/mL; IC50 (µg/ml), pseudovirus neutralization [16]: > 50 µg/mL; IC50 (µg/ml), pseudovirus neutralization [17]: > 50 µg/mL; neutralization IC50 [18]: > 50 µg/mL
2G12 (antibody)																	IC50 (µg/ml), pseudovirus neutralization [1]: 26.1 µg/mL; IC90 (neutralization of pseudovirus) [2]: > 50 µg/mL; IC50 (µg/ml), pseudovirus neutralization [3]: 9.24 µg/mL; IC50 (µg/ml), pseudovirus neutralization [4]: > 50 µg/mL; IC50 (µg/ml), pseudovirus neutralization [5]: 13.8 µg/mL; IC50 (µg/ml), pseudovirus neutralization [6]: 0.84 µg/mL; IC50 (µg/ml), pseudovirus neutralization [7]: > 50 µg/mL; IC50 (µg/ml), pseudovirus neutralization [8]: 7.9 µg/mL; IC50 [9]: > 50 µg/mL; IC50 (µg/ml), pseudovirus neutralization [10]: > 50 µg/mL; IC50 (µg/ml), pseudovirus neutralization [11]: 31.9 µg/mL; IC50 (µg/ml), pseudovirus neutralization [12]: > 50 µg/mL; IC50 (µg/ml), pseudovirus neutralization [13]: > 50 µg/mL; IC50 (µg/ml), pseudovirus neutralization [14]: 0.95 µg/mL; IC50 (µg/ml), pseudovirus neutralization [15]: > 50 µg/mL; IC50 (µg/ml), pseudovirus neutralization [16]: > 50 µg/mL; IC50 (µg/ml), pseudovirus neutralization [17]: > 50 µg/mL; neutralization IC50 [18]: > 50 µg/mL
1495_C14 (PGC14) (antibody)																	IC50 (µg/ml), pseudovirus neutralization [1]: > 50 µg/mL; IC50 (µg/ml), pseudovirus neutralization [3]: > 50 µg/mL; IC50 (µg/ml), pseudovirus neutralization [4]: > 50 µg/mL; IC50 (µg/ml), pseudovirus neutralization [5]: > 50 µg/mL; IC50 (µg/ml), pseudovirus neutralization [6]: > 50 µg/mL; IC50 (µg/ml), pseudovirus neutralization [7]: > 50 µg/mL; IC50 (µg/ml), pseudovirus neutralization [8]: 21 µg/mL; IC50 [9]: > 50 µg/mL; IC50 (µg/ml), pseudovirus neutralization [10]: > 50 µg/mL; IC50 (µg/ml), pseudovirus neutralization [11]: > 50 µg/mL; IC50 (µg/ml), pseudovirus neutralization [12]: > 50 µg/mL; IC50 (µg/ml), pseudovirus neutralization [13]: > 50 µg/mL; IC50 (µg/ml), pseudovirus neutralization [14]: > 50 µg/mL; IC50 (µg/ml), pseudovirus neutralization [15]: 19 µg/mL; IC50 (µg/ml), pseudovirus neutralization [16]: > 50 µg/mL; IC50 (µg/ml), pseudovirus neutralization [17]: > 50 µg/mL; neutralization IC50 [18]: > 50 µg/mL
4838_L06 (PGT-121) (antibody)	0.04	0.031	> 50	> 50	0.092	3											
4858_P08 (PGT-123) (antibody)	0.054	0.023	> 50	> 50	0.192	3											IC50 (µg/mL), pseudovirus neutralization [25]: > 50 µg/mL; Fold IC50 increase relative to wild-type (pseudovirus neutralization) [26]: 0.9 fold; IC50, pseudovirus neutralization [27]: 0.0423 µg/mL; IC50, pseudovirus neutralization [28]: 0.0169 µg/mL
4877_D15 (PGT-122) (antibody)	0.563	0.068	> 50	> 50	0.257	7											IC50 (µg/mL), pseudovirus neutralization [25]: > 50 µg/mL; IC50, pseudovirus neutralization [27]: 0.0727 µg/mL; IC50, pseudovirus neutralization [28]: 0.0388 µg/mL
4970_K22 (PGT-144) (antibody)							> 50	23	0.38	> 50	7.92	> 50					
4980_N08 (PGT-143) (antibody)							10.2	5.17	0.148	> 50	0.048	17.3					
4993_K13 (PGT-141) (antibody)							1.28	4.02	0.153	> 50	0.051	> 50					
4995_E20 (PGT-142) (antibody)							4	1.11	0.087	> 50	0.054	5.86					
4995_P16 (PGT-145) (antibody)							0.136	> 50	0.201	0.006	0.06	0.032					
5123_A06 (PGT-125) (antibody)	> 50	0.005	> 50	12.4	0.177	13900											IC50 (µg/mL), pseudovirus neutralization [25]: > 50 µg/mL; Fold IC50 increase relative to wild-type (pseudovirus neutralization) [26]: 1.2 fold; IC50, pseudovirus neutralization [27]: 0.006 µg/mL; IC50, pseudovirus neutralization [28]: > 10 µg/mL
5141_B17 (PGT-126) (antibody)	14.9	0.011	> 50	> 50	0.097	10											IC50 (µg/mL), pseudovirus neutralization [25]: 24.5 µg/mL; Fold IC50 increase relative to wild-type (pseudovirus neutralization) [26]: 0.7 fold; IC50, pseudovirus neutralization [27]: 0.0061 µg/mL; IC50, pseudovirus neutralization [28]: 1.14 µg/mL; Neutralization IC80 [15]: 0.0676 µg/mL; Neutralization IC90 [15]: 0.14 µg/mL; Neutralization IC95 [15]: 0.275 µg/mL; neutralization IC50 [15]: 0.0194 µg/mL
5145_B14 (PGT-127) (antibody)	3.59	0.014	> 50	> 50	0.105	40											IC50 (µg/mL), pseudovirus neutralization [25]: > 50 µg/mL; Fold IC50 increase relative to wild-type (pseudovirus neutralization) [26]: 1.5 fold
PGT-141 (4964_G22; 4993_K13) (antibody)													> 50	0.01	0.193	> 50	
PGT-142 (4995_E20) (antibody)													> 50	0.005	0.124	> 50	
PGT-143 (4980_N08) (antibody)													> 50	0.009	0.189	> 50	
PGT-144 (4970_K22) (antibody)													> 50	0.113	0.507	> 50	
PGT-145 (4995_P16) (antibody)													> 50	2.51	0.228	17.5	
VRC01 (antibody)							0.346	0.366	0.077	2.06	0.025	0.243	0.216	0.332	1.11	0.517	

Source: patent US20240132578A1
